* marks the point of attachment. Ethoxycarbonyl = CCOC(=O)*; CH2F = FC*
T1: rCaspase 3 (purchased from PharMingen) (UniProt P42574 29-277, limits assumed)
T1 sequence (looked up): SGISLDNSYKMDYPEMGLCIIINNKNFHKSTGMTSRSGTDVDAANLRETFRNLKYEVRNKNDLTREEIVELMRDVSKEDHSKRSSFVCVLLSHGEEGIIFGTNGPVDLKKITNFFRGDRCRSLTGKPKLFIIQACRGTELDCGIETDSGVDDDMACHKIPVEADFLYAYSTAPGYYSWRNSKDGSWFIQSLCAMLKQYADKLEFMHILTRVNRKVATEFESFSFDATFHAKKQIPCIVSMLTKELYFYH


Target: T1, rCaspase 3 (purchased from PharMingen)
Test: cell-based or functional assay

Binder | Caspase-3 IC50 (fluorometric enzyme assay, cleavage of 10 uM Ac-DEVD-AMC by 2 ng rCaspase 3) [nM]
cyclohexylmethoxycarbonyl-Val-Asp-CH2F [Cyclohexylmethoxycarbonyl-Val-Asp-fmk] | 72
Ethoxycarbonyl-Val-Asp-CH2F (SMILES CCOC(=O)N[C@H](C(=O)N[C@@H](CC(=O)O)C(=O)CF)C(C)C) [Ethoxycarbonyl-Val-Asp-fmk] | 58
